The values that follow come from patent US20200277349A1 (FRAUNHOFER GESELLSCHAFT ZUR F RDERUNG DER ANGEWANDTEN …, published 2020).

Experiment [1] addresses T1, human IL-1RAPL1 extracellular domain-Fc chimera (human, UniProt Q9NZN1 19-357).
T1 construct: extracellular domain; Coated on 96 well plates at 0.5 ug; also called IL-1RAPL1-Fc; immobilized IL-1RAPL1; not shown: Fc part of the chimera
T1 sequence (looked up): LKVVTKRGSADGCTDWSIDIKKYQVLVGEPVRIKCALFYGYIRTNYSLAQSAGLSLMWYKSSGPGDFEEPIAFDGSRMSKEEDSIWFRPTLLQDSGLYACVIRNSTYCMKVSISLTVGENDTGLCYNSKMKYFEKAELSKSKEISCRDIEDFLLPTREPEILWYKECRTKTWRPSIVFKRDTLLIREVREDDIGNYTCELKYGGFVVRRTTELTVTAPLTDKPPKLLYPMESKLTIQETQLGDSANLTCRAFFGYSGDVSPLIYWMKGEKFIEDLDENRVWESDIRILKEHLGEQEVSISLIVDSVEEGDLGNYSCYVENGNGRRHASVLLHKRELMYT
As to the kind of experiment: plate binding assay: IL-1RAPL1-Fc coated, IL-38 titrated, detected with biotinylated monoclonal IL-38 antibody. The procedure:
(§1) After 24 h IL-6 concentration in the supernatants was measured using cytometric bead array, normalized results are shown. Data are means±SEM, n=7. (B) Binding kinetics of full length and cleaved IL-38 to immobilized IL-1RAPL1. […] IL-38 binding to the extracellular domain of the receptors was detected using biotinylated monoclonal IL-38 antibody. Data are means±SEM, n=5.*p<0.05, ANOVA with Bonferroni's correction.
(§2) The inventors performed a receptor binding assay as explained above. Both IL-38 isoforms bound to IL-1RAPL1 in this assay (FIG. 7B). However, binding kinetics seemed to differ slightly. […] IL-1RAPL1 knock-down in macrophages abrogated both, IL-6 induction by full-length 11-38 and IL-6 suppression by truncated IL-38 (FIG. 7C).

Experiment [2] deals with T1, human IL-1RAPL1 extracellular domain-Fc …. Nature of the experiment: plate binding assay on immobilized IL-1RAPL1 extracellular domain-Fc chimera (FIG. 7B). As for the experimental part: as §1, §2

B1: recombinant human full length IL-38 (IL-38aa1-152) (ligand)
chain: MCSLPMARYYIIKYADQKALYTRDGQLLVGDPVADNCCAEKICILPNRGLARTKVPIFLGIQGGSRCLACVETEEGPSLQLEDVNIEELYKGGEEATRFTFFQSSSGSAFRLEAAAWPGWFLCGPAEPQQPVQLTKESEPSARTKFYFEQSW
Turning to B1, in experiment [1], the binding result is recorded as “binds”.

B2: recombinant human truncated (cleaved) IL-38 (IL-38aa20-152) (ligand)
chain: LYTRDGQLLVGDPVADNCCAEKICILPNRGLARTKVPIFLGIQGGSRCLACVETEEGPSLQLEDVNIEELYKGGEEATRFTFFQSSSGSAFRLEAAAWPGWFLCGPAEPQQPVQLTKESEPSARTKFYFEQSW
notes: also called truncated IL-38
Turning to B2, the binding result in experiment [2] was “binds”.
